# Results from paper PMC11543891, “Expression, purification, and characterization of diacylated Lipo-YcjN from Escherichia coli” (The Journal of Biological Chemistry, 2024).
# B1: Lipo-YcjN (diacylated lipoprotein form of E. coli YcjN, from the construct SP-YcjN-10H) (natural protein, E. coli K-12, UniProt P76042 21-430, looked up)
# chain: CKEENKTNVSIEFMHSSVEQERQAVISKLIARFEKENPGITVKQVPVEEDAYNTKVITLSRSGSLPEVIETSHDYAKVMDKEQLIDRKAVATVISNVGEGAFYDGVLRIVRTEDGSAWTGVPVSAWIGGIWYRKDVLAKAGLEEPKNWQQLLDVAQKLNDPANKKYGIALPTAESVLTEQSFSQFALSNQANVFNAEGKITLDTPEMMQALTYYRDLTANTMPGSNDIMEVKDAFMNGTAPMAIYSTYILPAVIKEGDPKNVGFVVPTEKNSAVYGMLTSLTITAGQKTEETEAAEKFVTFMEQADNIADWVMMSPGAALPVNKAVVTTATWKDNDVIKALGELPNQLIGELPNIQVFGAVGDKNFTRMGDVTGSGVVSSMVHNVTVGKADLSTTLQASQKKLDELIEQH
# modifications: diacylated at cysteine 21 (S-diacylglyceryl-cysteine, the new N terminus), acyl chain compositions [16:0, 16:0] and [16:0, 18:1]
# notes: YcjN, E. coli K-12, expressed with its native N-terminal signal peptide; by intact mass the purified protein is the processed lipoprotein that begins at the diacylated cysteine 21; Expressed as the full-length precursor (SP-YcjN-10H); LC-MS masses of 46,699 and 46,726 Da fit the protein cut before C21 and diacylated; No tag removal is described; also called lipidated YcjN
# Biological target: the molecule itself
# Experiment: SEC; Hiload 16/600 Superdex 200 pg, 25 mM Tris-HCl pH 7.5, 100 mM NaCl, run without LMNG and with 0.01% LMNG; elution volumes compared with gel filtration standards
protein,measurement,value
B1,binding result,binds
